One experiment concerns the target hASCT1 receptor (human) (UniProt P43007). The experiment is described as follows: soluble Env injected into SCID mice grafted with XChASCT1 cells; cells recovered, anti-RGS-His immunofluorescence.
Experiment [1] concerns the target hASCT2 receptor (human type 2 sodium-dependent neutral amino acid transporter) (human) (UniProt Q15758). The experiment is described as follows: soluble Env injected into SCID mice grafted with XChASCT2 cells; cells recovered, anti-RGS-His immunofluorescence.

Sequence of hASCT2 receptor (human type 2 sodium-dependent neutral amino acid transporter) (human) (Q15758 whole entry): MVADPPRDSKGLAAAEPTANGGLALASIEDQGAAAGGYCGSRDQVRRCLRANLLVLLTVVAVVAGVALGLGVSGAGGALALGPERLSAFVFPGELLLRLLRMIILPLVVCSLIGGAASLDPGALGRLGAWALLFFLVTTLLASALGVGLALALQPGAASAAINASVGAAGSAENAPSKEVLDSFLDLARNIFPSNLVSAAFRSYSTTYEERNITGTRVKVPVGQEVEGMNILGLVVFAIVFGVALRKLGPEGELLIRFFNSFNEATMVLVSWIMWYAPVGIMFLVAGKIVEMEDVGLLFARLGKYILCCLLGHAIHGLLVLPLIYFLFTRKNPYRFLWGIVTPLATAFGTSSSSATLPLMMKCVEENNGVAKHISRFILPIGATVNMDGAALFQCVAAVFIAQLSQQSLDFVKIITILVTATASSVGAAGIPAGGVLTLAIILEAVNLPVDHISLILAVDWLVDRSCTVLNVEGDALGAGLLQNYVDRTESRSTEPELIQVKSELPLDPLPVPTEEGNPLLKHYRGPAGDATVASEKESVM
Sequence of hASCT1 receptor (human) (P43007 whole entry): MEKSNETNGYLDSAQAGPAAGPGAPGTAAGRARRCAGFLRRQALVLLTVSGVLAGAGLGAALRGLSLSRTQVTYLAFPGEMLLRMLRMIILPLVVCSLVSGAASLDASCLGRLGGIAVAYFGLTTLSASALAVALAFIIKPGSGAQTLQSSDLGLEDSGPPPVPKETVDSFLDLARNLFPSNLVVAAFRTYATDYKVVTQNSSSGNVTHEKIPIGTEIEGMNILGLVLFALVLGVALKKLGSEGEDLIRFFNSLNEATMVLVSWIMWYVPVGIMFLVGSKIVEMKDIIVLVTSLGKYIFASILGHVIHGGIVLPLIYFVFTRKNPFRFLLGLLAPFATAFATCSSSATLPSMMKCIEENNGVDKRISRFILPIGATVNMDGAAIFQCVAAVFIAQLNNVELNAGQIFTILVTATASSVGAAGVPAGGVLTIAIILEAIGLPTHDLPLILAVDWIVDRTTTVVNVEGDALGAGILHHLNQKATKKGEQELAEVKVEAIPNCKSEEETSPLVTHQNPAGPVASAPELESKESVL

“soluble protein of plasmid 460 (envelope-spacer-His6) (from UniProt Q9UQF0 21-435) (ligand)” yielded an NF/NT, Mean (fluorescent cells of 77 cells) with hASCT1 receptor (human) of 24. The NF/NT, Mean (fluorescent cells of 57 cells) in experiment [1] was determined as 23.

Source of the values: patent US20160090402A1.
